Laboratory results reported in article PMC9242963, “FFF-based high-throughput sequence shortlisting to support the development of aptamer-based analytical strategies”.

Molecular target: lysozyme (UniProt P00698 19-147)
Test: AF4-UV (asymmetrical flow field-flow fractionation); concentration-dependent; among highest affinity with A80; PBS-Mg2+ buffer (also mobile phase; composition, pH and temperature not given in the material); 10 uL of 5 uM aptamer + 10 uL of 5, 10, 25 or 50 uM protein (1:1 to 1:10); detection at 260 nm; n = 3
Conditions: protein: commercial; label: none

lysozyme, sequence (P00698 19-147): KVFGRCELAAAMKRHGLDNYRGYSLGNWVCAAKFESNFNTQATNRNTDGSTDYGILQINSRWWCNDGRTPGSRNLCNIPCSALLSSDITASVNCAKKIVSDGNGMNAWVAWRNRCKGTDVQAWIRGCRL

GCAGCTAAGCAGGCGGCTCACAAAACCATTCGCATGCGGC (ssDNA) [A40]
binding result: binds
